In IntAct's records for PubMed 31324769:

Columns and labels:
mon2_human MON2 = mon2_human MON2 (UniProt Q7Z3U7)
klc2_human KLC2 = klc2_human KLC2 (UniProt Q9H0B6)
klc2_human KLC2, sequence (Q9H0B6 whole entry): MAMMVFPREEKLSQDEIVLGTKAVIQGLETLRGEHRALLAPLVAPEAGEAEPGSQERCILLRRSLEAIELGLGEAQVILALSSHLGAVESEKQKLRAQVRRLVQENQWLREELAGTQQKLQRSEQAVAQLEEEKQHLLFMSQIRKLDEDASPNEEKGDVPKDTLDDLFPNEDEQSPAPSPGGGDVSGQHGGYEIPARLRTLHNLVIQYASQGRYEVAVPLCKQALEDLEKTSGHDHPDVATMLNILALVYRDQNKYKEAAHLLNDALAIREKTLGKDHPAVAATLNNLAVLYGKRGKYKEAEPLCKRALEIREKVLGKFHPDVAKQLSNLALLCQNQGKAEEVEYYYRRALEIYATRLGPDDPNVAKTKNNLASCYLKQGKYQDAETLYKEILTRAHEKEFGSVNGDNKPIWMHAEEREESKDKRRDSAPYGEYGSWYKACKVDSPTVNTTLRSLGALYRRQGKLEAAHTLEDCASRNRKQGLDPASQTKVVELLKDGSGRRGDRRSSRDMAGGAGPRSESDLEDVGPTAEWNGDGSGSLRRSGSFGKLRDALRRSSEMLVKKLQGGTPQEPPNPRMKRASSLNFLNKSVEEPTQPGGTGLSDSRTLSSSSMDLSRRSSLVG

mon2_human MON2, sequence (Q7Z3U7 whole entry): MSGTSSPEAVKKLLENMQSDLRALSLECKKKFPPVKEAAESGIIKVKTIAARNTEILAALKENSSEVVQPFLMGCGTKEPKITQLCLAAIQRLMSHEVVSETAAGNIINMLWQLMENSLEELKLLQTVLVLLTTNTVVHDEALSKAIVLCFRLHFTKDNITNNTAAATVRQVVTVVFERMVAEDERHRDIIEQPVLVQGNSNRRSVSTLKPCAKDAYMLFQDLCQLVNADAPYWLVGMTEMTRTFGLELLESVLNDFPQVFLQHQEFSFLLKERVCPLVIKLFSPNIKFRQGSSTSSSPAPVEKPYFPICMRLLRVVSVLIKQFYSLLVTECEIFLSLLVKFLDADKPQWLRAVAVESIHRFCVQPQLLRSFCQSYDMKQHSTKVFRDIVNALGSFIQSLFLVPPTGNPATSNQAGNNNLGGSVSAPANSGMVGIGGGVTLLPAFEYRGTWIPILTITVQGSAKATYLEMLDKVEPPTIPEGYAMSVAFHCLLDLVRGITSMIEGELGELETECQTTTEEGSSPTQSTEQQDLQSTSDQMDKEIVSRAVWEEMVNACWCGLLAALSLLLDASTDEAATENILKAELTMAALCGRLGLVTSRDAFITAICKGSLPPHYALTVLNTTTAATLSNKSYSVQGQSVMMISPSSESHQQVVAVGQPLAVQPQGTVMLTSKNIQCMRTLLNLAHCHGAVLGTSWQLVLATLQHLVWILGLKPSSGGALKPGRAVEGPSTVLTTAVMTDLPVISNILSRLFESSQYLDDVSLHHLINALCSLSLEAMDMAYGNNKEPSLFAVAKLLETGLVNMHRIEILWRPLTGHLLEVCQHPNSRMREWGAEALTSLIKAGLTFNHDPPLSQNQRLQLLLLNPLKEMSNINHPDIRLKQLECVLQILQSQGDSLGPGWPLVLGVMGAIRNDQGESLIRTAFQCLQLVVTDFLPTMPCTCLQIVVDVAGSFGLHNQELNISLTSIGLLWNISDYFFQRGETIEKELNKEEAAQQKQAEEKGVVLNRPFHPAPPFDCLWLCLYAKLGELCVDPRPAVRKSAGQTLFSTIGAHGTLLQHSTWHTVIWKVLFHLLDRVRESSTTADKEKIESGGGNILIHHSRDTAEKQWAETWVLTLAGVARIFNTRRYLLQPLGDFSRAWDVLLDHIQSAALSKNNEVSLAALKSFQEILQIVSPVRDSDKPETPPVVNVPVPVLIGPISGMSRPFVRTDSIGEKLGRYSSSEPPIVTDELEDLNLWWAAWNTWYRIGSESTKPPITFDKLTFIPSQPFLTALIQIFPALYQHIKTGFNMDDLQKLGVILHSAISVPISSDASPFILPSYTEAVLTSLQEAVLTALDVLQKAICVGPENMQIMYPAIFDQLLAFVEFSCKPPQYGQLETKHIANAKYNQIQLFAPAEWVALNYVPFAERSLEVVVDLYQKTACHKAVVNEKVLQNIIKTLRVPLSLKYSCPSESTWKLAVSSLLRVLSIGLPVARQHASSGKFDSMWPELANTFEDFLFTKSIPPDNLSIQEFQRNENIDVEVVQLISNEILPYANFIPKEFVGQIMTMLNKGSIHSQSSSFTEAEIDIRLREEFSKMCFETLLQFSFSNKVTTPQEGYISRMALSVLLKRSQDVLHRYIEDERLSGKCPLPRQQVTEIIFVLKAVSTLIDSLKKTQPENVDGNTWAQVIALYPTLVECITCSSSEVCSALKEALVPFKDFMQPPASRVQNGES

Substance: Protein DOP1A (Homo sapiens), Q5JWR5 L2178A;K2179A;R2180A;L2181A
- effect of a mutation on the interaction (mon2_human MON2): with no effect

Substance: Protein DOP1A (Homo sapiens), Q5JWR5 W34A
- effect of a mutation on the interaction (klc2_human KLC2): disrupting interaction strength

Substance: Protein DOP1A (Homo sapiens), Q5JWR5 W186A
- effect of a mutation on the interaction (klc2_human KLC2): disrupting interaction strength
